Paper PMC10716038, “Talin and kindlin use integrin tail allostery and direct binding to activate integrins” (Nature Structural & Molecular Biology, 2023)
Several values for one entry are separate records, joined by “and”; a condition that tells them apart may be missing. Equal values may be shown once. No end group written: not given here.

Experiments:
Settings in all cases: both partners purified
[1] = target: T1, kindlin-2 (KIND2) (UniProt Q8CIB5 1-680); assay: MST; apparent; KIND2 titrated to 488–β3-CT in the presence of 250–450 µM THD1; MST buffer
T1 construct: kindlin-2 (KIND2), recombinant; with the F1 loop and the PH domain (unlike ΔKIND2); source: E. coli Rosetta, purified (IMAC, SEC); not shown: His10-SUMO, N-terminal, cleaved
T1 sequence (looked up): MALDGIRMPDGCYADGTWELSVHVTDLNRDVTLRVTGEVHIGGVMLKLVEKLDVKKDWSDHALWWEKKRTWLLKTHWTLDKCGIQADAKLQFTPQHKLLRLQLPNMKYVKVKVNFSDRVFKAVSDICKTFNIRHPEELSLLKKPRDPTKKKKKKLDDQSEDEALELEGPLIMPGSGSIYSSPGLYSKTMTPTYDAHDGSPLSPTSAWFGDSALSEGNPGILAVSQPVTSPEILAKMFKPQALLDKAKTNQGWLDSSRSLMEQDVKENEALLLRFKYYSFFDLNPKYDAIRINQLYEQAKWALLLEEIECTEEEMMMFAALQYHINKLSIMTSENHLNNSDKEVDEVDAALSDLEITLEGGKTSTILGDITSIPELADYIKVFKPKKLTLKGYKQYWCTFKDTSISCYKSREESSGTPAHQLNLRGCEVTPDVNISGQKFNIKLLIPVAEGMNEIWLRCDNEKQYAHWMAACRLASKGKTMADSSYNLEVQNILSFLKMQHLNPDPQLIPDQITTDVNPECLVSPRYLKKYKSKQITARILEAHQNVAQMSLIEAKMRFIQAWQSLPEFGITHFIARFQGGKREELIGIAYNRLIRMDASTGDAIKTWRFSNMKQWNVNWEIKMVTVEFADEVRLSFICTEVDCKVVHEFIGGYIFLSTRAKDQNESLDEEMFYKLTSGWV

[2] = target: T2, THD1 K402E (UniProt P26039 1-405, K402E); assay: MST; apparent; THD1 or THD1 mutants titrated to 488–β3-CT in the presence of 30-40 µM KIND2; MST buffer
T2 construct: talin-1 (TLN1) head domain, residues 1-405, K402E; source: E. coli (DE3) Rosetta 2, purified (IMAC, SEC); not shown: His10-SUMO, N-terminal, cleaved
T2 sequence (P26039 1-405 K402E): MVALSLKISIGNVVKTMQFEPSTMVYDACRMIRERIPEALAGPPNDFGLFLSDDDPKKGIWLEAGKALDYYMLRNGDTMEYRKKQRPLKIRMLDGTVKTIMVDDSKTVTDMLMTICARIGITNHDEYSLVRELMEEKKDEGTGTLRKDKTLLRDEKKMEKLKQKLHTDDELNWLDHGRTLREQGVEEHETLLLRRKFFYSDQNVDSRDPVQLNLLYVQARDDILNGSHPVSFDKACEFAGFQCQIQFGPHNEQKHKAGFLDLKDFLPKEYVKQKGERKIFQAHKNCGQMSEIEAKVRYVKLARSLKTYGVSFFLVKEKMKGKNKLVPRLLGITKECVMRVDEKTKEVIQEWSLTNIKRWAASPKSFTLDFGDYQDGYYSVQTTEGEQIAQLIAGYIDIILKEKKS

[3] = target: T3, THD1 L400A (UniProt P26039 1-405, L400A); assay: as above
T3 construct: talin-1 (TLN1) head domain, residues 1-405, L400A; source: E. coli (DE3) Rosetta 2, purified (IMAC, SEC); not shown: His10-SUMO, N-terminal, cleaved
T3 sequence (P26039 1-405 L400A): as the sequence (P26039 1-405 K402E) above, with L400A, E402K counted along it

[4] = target: T4, THD1 Δ401-405 (UniProt P26039 1-405, Δ401-405); assay: as above
T4 construct: source: E. coli (DE3) Rosetta 2, purified (IMAC, SEC); not shown: His10-SUMO, N-terminal, cleaved
T4 sequence (P26039 1-400, stated change not applied): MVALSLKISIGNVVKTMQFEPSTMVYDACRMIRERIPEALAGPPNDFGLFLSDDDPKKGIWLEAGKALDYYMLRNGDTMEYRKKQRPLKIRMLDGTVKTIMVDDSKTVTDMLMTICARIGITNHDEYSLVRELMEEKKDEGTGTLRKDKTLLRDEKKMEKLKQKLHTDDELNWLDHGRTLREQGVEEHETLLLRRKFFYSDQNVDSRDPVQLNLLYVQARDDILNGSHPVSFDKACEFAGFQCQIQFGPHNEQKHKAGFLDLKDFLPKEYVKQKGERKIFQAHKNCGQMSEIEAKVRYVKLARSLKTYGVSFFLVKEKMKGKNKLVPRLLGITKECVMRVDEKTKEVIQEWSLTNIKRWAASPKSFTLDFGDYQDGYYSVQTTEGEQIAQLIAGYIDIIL

[5] = target: T5, THD1 K402A (UniProt P26039 1-405, K402A); assay: as above
T5 construct: talin-1 (TLN1) head domain, residues 1-405, K402A; source: E. coli (DE3) Rosetta 2, purified (IMAC, SEC); not shown: His10-SUMO, N-terminal, cleaved
T5 sequence (P26039 1-405 K402A): as the sequence (P26039 1-405 K402E) above, with E402A counted along it

[6] = target: T6, THD1 KKAA (UniProt P26039 1-405, KKAA (KK402/403)); assay: as above
T6 construct: the sheet prints only 'KKAA'; source: E. coli (DE3) Rosetta 2, purified (IMAC, SEC); not shown: His10-SUMO, N-terminal, cleaved
T6 sequence (P26039 other isoform, or with tags, fused parts or gaps KKAA (KK402/403) | KKAA (KK402/403)): as the sequence (P26039 1-405 K402E) above, with E402A, K403A counted along it

[7] = target: T7, talin-1 head domain (THD1) (UniProt P26039 1-405); assay: as above
T7 construct: talin-1 (TLN1) head domain (THD), residues 1-405; murine TLN1 cDNA is named only for the cell lines; also called WT; source: E. coli (DE3) Rosetta 2, purified (IMAC, SEC); not shown: His10-SUMO, N-terminal, cleaved
T7 sequence (P26039 1-405): as the sequence (P26039 1-405 K402E) above, with E402K counted along it

[8] = target: T7, talin-1 head domain (THD1); assay: MST; unlabelled protein titrated to 50-200 nM ATTO 488-labelled β-CT peptide, no third protein; 20 mM Tris pH 7.5, 200 mM NaCl, 1 mM TCEP, 0.05% Tween-20; Kd of individual titrations (in S0002 mean and sd, n = 2)

Kd [1]: 30.7 µM and 85.6 µM and 31.9 µM and 66 µM
Kd [2]: 54.3 µM and 67.7 µM and 70.3 µM
Kd [3]: 180 µM
Kd [4]: 560 µM
Kd [5]: 117 µM
Kd [6]: 88.3 µM
Kd [7]: 95 µM
Kd [8]: 81.6 µM
B1: ATTO 488-labeled integrin β3 cytoplasmic tail (488–β3-CT) (peptide, UniProt O54890 741-787, looked up)
peptide: {ATTO 488}-KLLITIHDRKEFAKFEEERARAKWDTANNPLYKEATSTFTNITYRGT
notes: integrin β3 cytoplasmic tail (β3-CT); source: synthetic peptide (MPIB Core Facility)
